{"source": "paper PMC12120873", "about": "“Evening complex component ELF3 interacts with LUX proteins to repress soybean root nodulation”", "key": {"INN1-MBP (ELF3a)": {"target": "T1, INN1-MBP (ELF3a) (Glycine max, UniProt K7KI62 1-714)", "T1 sequence": "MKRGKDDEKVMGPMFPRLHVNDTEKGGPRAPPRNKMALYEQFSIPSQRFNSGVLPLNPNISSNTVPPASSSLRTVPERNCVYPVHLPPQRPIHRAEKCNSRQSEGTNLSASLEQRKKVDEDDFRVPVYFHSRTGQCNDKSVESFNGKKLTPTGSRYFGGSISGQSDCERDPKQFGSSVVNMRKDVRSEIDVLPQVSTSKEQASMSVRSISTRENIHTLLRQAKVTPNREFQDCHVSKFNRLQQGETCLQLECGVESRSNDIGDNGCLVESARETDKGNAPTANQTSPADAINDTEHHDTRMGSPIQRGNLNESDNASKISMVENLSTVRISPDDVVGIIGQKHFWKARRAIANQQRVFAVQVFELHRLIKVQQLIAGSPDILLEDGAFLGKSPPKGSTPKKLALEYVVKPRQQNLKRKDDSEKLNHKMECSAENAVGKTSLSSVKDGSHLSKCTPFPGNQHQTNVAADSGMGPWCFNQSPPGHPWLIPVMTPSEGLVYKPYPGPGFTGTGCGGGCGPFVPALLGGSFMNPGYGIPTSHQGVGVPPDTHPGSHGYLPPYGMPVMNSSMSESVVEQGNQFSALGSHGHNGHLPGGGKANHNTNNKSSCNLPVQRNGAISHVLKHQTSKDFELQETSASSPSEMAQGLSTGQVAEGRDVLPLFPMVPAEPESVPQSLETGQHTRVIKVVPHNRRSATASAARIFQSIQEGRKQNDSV", "assay": "EMSA; INN1 alone; probe taken to be the ENOD40 probe of Table S1; LightShift Chemiluminescent EMSA Kit (Pierce) binding buffer, composition, salt and pH not stated; room temperature 20 min; 6% native PAGE", "conditions": "protein: recombinant; tags: MBP; label: biotin; blunt"}, "LUX1-MBP": {"target": "T2, LUX1-MBP (Glycine max, UniProt K7LTA3 1-306)", "T2 sequence": "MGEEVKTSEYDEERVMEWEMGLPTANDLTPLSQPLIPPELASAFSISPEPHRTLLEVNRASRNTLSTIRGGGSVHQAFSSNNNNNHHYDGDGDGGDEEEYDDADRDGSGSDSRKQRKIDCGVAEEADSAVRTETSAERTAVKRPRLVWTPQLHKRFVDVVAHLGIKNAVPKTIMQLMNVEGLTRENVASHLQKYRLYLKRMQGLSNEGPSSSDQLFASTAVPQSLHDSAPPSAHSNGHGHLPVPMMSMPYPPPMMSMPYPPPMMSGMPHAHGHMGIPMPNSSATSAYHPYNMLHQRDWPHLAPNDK", "assay": "EMSA; LightShift Chemiluminescent EMSA Kit (Pierce) binding buffer, composition, salt and pH not stated; room temperature 20 min; 6% native PAGE", "conditions": "protein: recombinant; tags: MBP; label: biotin; blunt"}}}
{"binder": "probe-ENOD40 (P1 region) (dsDNA) DNA 1: TTGACATTCATATCCTTTGTATTTCAATTAGATTAGATATGTTCTACGGA DNA 2: TCCGTAGAACATATCTAATCTAATTGAAATACAAAGGATATGAATGTCAA", "values": [{"measurement": "binding result", "setting": "INN1-MBP (ELF3a)", "value": "no binding"}, {"measurement": "binding result", "setting": "LUX1-MBP", "value": "binds"}]}
